B1: WD-40 repeat-containing protein MSI4 (Arabidopsis thaliana (Mouse-ear cress)), O22607 (parent)
chain: MESDEAAAVSPQATTPSGGTGASGPKKRGRKPKTKEDSQTPSSQQQSDVKMKESGKKTQQSPSVDEKYSQWKGLVPILYDWLANHNLVWPSLSCRWGPQLEQATYKNRQRLYLSEQTDGSVPNTLVIANCEVVKPRVAAAEHISQFNEEARSPFVKKYKTIIHPGEVNRIRELPQNSKIVATHTDSPDVLIWDVETQPNRHAVLGAANSRPDLILTGHQDNAEFALAMCPTEPFVLSGGKDKSVVLWSIQDHITTIGTDSKSSGSIIKQTGEGTDKNESPTVGPRGVYHGHEDTVEDVAFSPTSAQEFCSVGDDSCLILWDARTGTNPVTKVEKAHDADLHCVDWNPHDDNLILTGSADNTVRLFDRRKLTANGVGSPIYKFEGHKAAVLCVQWSPDKSSVFGSSAEDGLLNIWDYDRVSKKSDRAAKSPAGLFFQHAGHRDKVVDFHWNASDPWTIVSVSDDCETTGGGGTLQIWRMSDLIYRPEEEVVAELEKFKSHVMTCASKP
partner: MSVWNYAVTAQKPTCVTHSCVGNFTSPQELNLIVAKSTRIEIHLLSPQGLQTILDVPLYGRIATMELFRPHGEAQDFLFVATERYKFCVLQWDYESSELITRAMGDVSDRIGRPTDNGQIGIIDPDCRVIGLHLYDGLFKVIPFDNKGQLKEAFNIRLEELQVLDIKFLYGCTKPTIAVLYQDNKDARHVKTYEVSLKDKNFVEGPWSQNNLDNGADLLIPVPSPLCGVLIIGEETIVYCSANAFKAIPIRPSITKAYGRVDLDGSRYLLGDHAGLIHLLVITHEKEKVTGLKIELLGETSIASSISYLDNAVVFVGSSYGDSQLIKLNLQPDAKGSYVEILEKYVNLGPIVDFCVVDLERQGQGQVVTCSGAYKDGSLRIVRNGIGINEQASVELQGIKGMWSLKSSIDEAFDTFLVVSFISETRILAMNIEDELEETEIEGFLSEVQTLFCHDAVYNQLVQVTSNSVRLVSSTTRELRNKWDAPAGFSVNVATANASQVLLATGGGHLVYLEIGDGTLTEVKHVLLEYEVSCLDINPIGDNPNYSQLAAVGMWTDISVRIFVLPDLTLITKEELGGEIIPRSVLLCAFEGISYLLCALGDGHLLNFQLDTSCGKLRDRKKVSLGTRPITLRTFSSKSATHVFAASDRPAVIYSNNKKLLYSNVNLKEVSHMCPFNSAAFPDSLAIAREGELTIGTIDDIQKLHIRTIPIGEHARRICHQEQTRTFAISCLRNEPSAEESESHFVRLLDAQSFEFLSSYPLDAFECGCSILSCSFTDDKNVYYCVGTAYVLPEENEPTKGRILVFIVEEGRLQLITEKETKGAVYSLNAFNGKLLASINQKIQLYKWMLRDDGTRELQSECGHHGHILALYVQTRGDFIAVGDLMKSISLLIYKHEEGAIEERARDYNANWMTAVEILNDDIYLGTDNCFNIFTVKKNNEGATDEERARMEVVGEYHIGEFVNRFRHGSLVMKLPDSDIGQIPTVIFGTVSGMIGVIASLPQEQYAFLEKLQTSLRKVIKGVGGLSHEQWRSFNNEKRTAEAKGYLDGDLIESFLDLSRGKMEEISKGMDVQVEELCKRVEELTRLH
B2: WD-40 repeat-containing protein MSI4 (Arabidopsis thaliana (Mouse-ear cress)), O22607 (parent)
chain: B1 chain
partner: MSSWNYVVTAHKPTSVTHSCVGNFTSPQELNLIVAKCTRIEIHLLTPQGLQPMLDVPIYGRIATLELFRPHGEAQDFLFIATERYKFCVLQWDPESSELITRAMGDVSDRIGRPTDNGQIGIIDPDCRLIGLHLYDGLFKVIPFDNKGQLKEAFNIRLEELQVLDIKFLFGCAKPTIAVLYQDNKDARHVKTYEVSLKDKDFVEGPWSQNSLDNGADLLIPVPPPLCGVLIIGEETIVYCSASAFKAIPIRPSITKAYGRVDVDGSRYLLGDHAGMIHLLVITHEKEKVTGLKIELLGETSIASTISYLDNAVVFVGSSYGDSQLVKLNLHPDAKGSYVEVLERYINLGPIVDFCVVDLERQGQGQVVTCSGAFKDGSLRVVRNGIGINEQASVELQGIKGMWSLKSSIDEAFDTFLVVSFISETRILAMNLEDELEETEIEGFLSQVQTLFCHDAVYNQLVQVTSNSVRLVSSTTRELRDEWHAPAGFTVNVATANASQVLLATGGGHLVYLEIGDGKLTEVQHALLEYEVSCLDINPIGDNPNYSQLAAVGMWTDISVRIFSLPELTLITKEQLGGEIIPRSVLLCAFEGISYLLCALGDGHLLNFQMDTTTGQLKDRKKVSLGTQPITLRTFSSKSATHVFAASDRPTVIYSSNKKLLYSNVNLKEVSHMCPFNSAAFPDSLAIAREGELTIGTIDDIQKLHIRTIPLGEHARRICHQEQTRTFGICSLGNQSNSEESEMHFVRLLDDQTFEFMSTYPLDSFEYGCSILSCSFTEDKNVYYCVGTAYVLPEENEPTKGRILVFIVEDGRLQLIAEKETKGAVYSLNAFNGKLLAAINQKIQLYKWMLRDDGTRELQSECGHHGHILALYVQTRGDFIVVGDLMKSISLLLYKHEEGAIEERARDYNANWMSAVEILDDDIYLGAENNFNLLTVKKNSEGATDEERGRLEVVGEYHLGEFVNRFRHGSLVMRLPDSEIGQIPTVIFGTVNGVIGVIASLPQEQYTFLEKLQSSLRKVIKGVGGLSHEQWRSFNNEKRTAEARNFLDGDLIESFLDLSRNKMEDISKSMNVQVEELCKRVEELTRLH

Variants of: B1
Settings: with ddb1b_arath DDB1B

Which “effect of a mutation on the interaction” value does the source give for MESDEAAAVSPQATTPSGGTGASGPKKRGRKPKTKEDSQTPSSQQQSDVKMKESGKKTQQSPSVDEKYSQWKGLVPILYDWLANHNLVWPSLSCRWGPQLEQATYKNRQRLYLSEQTDGSVPNTLVIANCEVVKPRVAAAEHISQFNEEARSPFVKKYKTIIHPGEVNRIRELPQNSKIVATHTDSPDVLIWDVETQPNRHAVLGAANSRPDLILTGHQDNAEFALAMCPTEPFVLSGGKDKSVVLWSIQDHITTIGTDSKSSGSIIKQTGEGTDKNESPTVGPRGVYHGHEDTVEDVAFSPTSAQEFCSVGDDSCLILWDAHTGTNPVTKVEKAHDADLHCVDWNPHDDNLILTGSADNTVRLFDRRKLTANGVGSPIYKFEGHKAAVLCVQWSPDKSSVFGSSAEDGLLNIWDYDRVSKKSDRAAKSPAGLFFQHAGHRDKVVDFHWNASDPWTIVSVSDDCETTGGGGTLQIWRMSDLIYRPEEEVVAELEKFKSHVMTCASKP [R323H] here?
Its value is “decreasing interaction strength”.

Variants of: B2
Settings: with ddb1a_arath DDB1A

Which “effect of a mutation on the interaction” value does the source give for MESDEAAAVSPQATTPSGGTGASGPKKRGRKPKTKEDSQTPSSQQQSDVKMKESGKKTQQSPSVDEKYSQWKGLVPILYDWLANHNLVWPSLSCRWGPQLEQATYKNRQRLYLSEQTDGSVPNTLVIANCEVVKPRVAAAEHISQFNEEARSPFVKKYKTIIHPGEVNRIRELPQNSKIVATHTDSPDVLIWDVETQPNRHAVLGAANSRPDLILTGHQDNAEFALAMCPTEPFVLSGGKDKSVVLWSIQDHITTIGTDSKSSGSIIKQTGEGTDKNESPTVGPRGVYHGHEDTVEDVAFSPTSAQEFCSVGDDSCLILWDAHTGTNPVTKVEKAHDADLHCVDWNPHDDNLILTGSADNTVRLFDRRKLTANGVGSPIYKFEGHKAAVLCVQWSPDKSSVFGSSAEDGLLNIWDYDRVSKKSDRAAKSPAGLFFQHAGHRDKVVDFHWNASDPWTIVSVSDDCETTGGGGTLQIWRMSDLIYRPEEEVVAELEKFKSHVMTCASKP [R323H] here?
Its value is “decreasing interaction strength”.
